# The Human Domainome abundance scans (Beltran et al. 2025)
# ± gives the uncertainty stated by the source.
# B1: Glucocorticoid receptor, residues 419 to 494; numbered along this chain, P04150 (parent)
# chain: KLCLVCSDEASGCHYGVLTCGSCKVFFKRAVEGQHNYLCAGRNDCIIDKIRRKNCPACRYRKCLQAGMNLEARKTK
# Variants of: B1
# Experiment: abundance fitness (aPCA) (normalised: wild type 0, dead -1); higher = more abundant; growth selection in yeast, the domain comes from the species named
# Conditions: Homo sapiens
row,Variant,abundance fitness
1,KLCLVCSDEASGCHYGVLTCGSCKVFFKRAVEGQHNYLCAGRNDCIIDKIRRKNCPACRYRKCLQAGMNLERRKTK,-0.054 ± 0.032
2,KLCLVCSDEASGCHYGVLTCGSCKVFFKRAVEGQHNYLCAGRNDCIIDKIRRKNCPACRYRKCLQAGMNLEWRKTK,-0.023 ± 0.039
3,KLCLVCDDEASGCHYGVLTCGSCKVFFKRAVEGQHNYLCAGRNDCIIDKIRRKNCPACRYRKCLQAGMNLEARKTK,0 ± 0.053
4,KLCLVCSDEASGCHYGVLTCGSCKVFFKRAVRGQHNYLCAGRNDCIIDKIRRKNCPACRYRKCLQAGMNLEARKTK,-0.021 ± 0.032
5,KLCLVCSDEASGCHYGVLTCGSCKVFFKRAVEGQHNYLNAGRNDCIIDKIRRKNCPACRYRKCLQAGMNLEARKTK,-0.603 ± 0.2
6,KLCLVCSDEASGCHYGVLTCGSCKVFFKRAVEGQHNYLGAGRNDCIIDKIRRKNCPACRYRKCLQAGMNLEARKTK,-0.716 ± 0.059
7,KLCLVCSDEASGCHYGVLTCGSCKVFFARAVEGQHNYLCAGRNDCIIDKIRRKNCPACRYRKCLQAGMNLEARKTK,-0.056 ± 0.036
8,KLCLVCSDEAYGCHYGVLTCGSCKVFFKRAVEGQHNYLCAGRNDCIIDKIRRKNCPACRYRKCLQAGMNLEARKTK,-0.174 ± 0.089
9,KLCLVCSDEAKGCHYGVLTCGSCKVFFKRAVEGQHNYLCAGRNDCIIDKIRRKNCPACRYRKCLQAGMNLEARKTK,-0.005 ± 0.045
10,KLCLVCSDEASGCHYGVLTCGSCKVDFKRAVEGQHNYLCAGRNDCIIDKIRRKNCPACRYRKCLQAGMNLEARKTK,-1.01 ± 0.26
11,KLCLVCSDEASGCHYGVLTCGSCKVFFKRAVEGQHNYLCAGRNDCIIDKIRRKNCPACRYRKCLQAQMNLEARKTK,-0.371 ± 0.081
12,KLCLVCSDEASGCHYGVLTCGSCKVFFKRAVEGQHNYLCAGRNDCIINKIRRKNCPACRYRKCLQAGMNLEARKTK,0.024 ± 0.091
13,KLCLNCSDEASGCHYGVLTCGSCKVFFKRAVEGQHNYLCAGRNDCIIDKIRRKNCPACRYRKCLQAGMNLEARKTK,-0.703 ± 0.23
14,KLCLVCSDEASGCHYGVLTCGSCPVFFKRAVEGQHNYLCAGRNDCIIDKIRRKNCPACRYRKCLQAGMNLEARKTK,-0.096 ± 0.072
15,KLCLVCSDEASGCHYGVLTCGSCVVFFKRAVEGQHNYLCAGRNDCIIDKIRRKNCPACRYRKCLQAGMNLEARKTK,0.015 ± 0.059
16,KLCLVCSDEASGCHYGVLTCGSCKVFFKRAVEGQHNYLCARRNDCIIDKIRRKNCPACRYRKCLQAGMNLEARKTK,0.02 ± 0.03
17,KLCLVCSDEASGCHYGVLTCQSCKVFFKRAVEGQHNYLCAGRNDCIIDKIRRKNCPACRYRKCLQAGMNLEARKTK,0.13 ± 0.055
18,KLCLVCSDEASGCHYGVLTCDSCKVFFKRAVEGQHNYLCAGRNDCIIDKIRRKNCPACRYRKCLQAGMNLEARKTK,-0.009 ± 0.062

row,Variant,abundance fitness
1,KLCLVCSDEASGCHYGVLTCGSCKVFFKRAVEGQQNYLCAGRNDCIIDKIRRKNCPACRYRKCLQAGMNLEARKTK,-0.044 ± 0.048
2,KLCLVCSDEASGCHYGVLTCGSCKVFFKRAVEGQSNYLCAGRNDCIIDKIRRKNCPACRYRKCLQAGMNLEARKTK,-0.114 ± 0.04
3,KLCLVCSDEASGCHYGVLTCGSCKVFFKRAVEGQHNYLCAGRNDCIIDKIRRKQCPACRYRKCLQAGMNLEARKTK,-0.006 ± 0.042
4,KLCLVCSDEASGCHYGVLTCGSCKVFFKRAVEGQHNYLCAGRNDCIIDKIRRKECPACRYRKCLQAGMNLEARKTK,-0.025 ± 0.044
5,KLCLVCSDEASGCHYLVLTCGSCKVFFKRAVEGQHNYLCAGRNDCIIDKIRRKNCPACRYRKCLQAGMNLEARKTK,-0.558 ± 0.05
6,KLCLVCSDEASGCHYGVLICGSCKVFFKRAVEGQHNYLCAGRNDCIIDKIRRKNCPACRYRKCLQAGMNLEARKTK,-0.057 ± 0.07
7,KLCLVCSDEASGCHYGVLTCGSCKVFFKRAVEGQHNYLCAGRNDCIIDKIRRKNCPACNYRKCLQAGMNLEARKTK,-0.817 ± 0.23
8,KLCLVCSDEASGCHYGVLTCGSCKVFFKRAVEGQHNYLCAGRNDCIIDKIRRKNCPACVYRKCLQAGMNLEARKTK,-0.783 ± 0.082
9,KLCLVCSDEASGCHYGVLTCGSCKVFFKRAVEGFHNYLCAGRNDCIIDKIRRKNCPACRYRKCLQAGMNLEARKTK,-0.256 ± 0.12
10,KLCLVCSDEASGCHYGVLTCGSCKVFFKRAVEGCHNYLCAGRNDCIIDKIRRKNCPACRYRKCLQAGMNLEARKTK,-0.028 ± 0.078
11,KLCLVCSDEASGCHYGVLTCGSCKVFFKRAVEGQHNYLCAGRNDCIIDKIFRKNCPACRYRKCLQAGMNLEARKTK,0.051 ± 0.11
12,KLCLVCSDEASGCHYGVLTCGSCKVFFKRAVEGQHNYVCAGRNDCIIDKIRRKNCPACRYRKCLQAGMNLEARKTK,0.058 ± 0.031
13,KLCLVCSDEASGCHYGVLTCGSCKVFFKRAVEGQHNYDCAGRNDCIIDKIRRKNCPACRYRKCLQAGMNLEARKTK,0.102 ± 0.063
14,KLCLVCSDEASGCHYGVLTCGSCKVFFKRAVEGQHNYLCAGRNDCIIDKIRRKNCPACRYRKCLQGGMNLEARKTK,-0.109 ± 0.044
15,KLCLVCSDEASGCHYGVLTCGSCKVFFKRAVEGQHNYLCAGRNDCIIDKIRRKNCPACRYRKCLQMGMNLEARKTK,-0.031 ± 0.049
16,KLCLVCSDEASGCHYGVLTCGSCKVFFKRAVEGQHNYLCAGRNDCIIDKIRRKNCPACRYRKCLQAGMNLEARKKK,0.007 ± 0.076
17,KLCLVCSDEASGCHYGVLTCGSCKVFFKRAVEGQHNYLCAGRNDCIIDKIRRKNCPACRYRKCLQAGMNLCARKTK,-0.052 ± 0.049
18,KLCLVCSDEASGCHYGVLTCGSCKVFFKRAVEGQHNYLCAGRNDCIIDKIRRKNCPACRYRKCLQAGMNLNARKTK,-0.017 ± 0.065
